Measured values from the supplement of paper PMC9732359.
± gives the uncertainty stated by the source.

Assay: protein stability index of a GFP-peptide fusion (yeast GPS) (PSI 1-4); higher = more stable; sorted into four equal gates, so the index is relative within each strain
Outline: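 Yeast carrying a pooled library were grown to mid-log phase in leucine-free medium. Each library plasmid expresses Cherry and has a tiled 17-residue yeast protein peptide fused downstream of GFP. Cells were sorted into four equal gates by GFP/Cherry ratio, and plasmids from each gate were PCR-amplified, Illumina-sequenced and assigned to strains by barcode. Summing, across gates, the read frequency times the gate number gave each peptide's protein stability index.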

Sequence | protein stability index (doa10∆) | protein stability index (pdr5∆) | protein stability index (san1∆) | protein stability index (ubr1∆)
KGTNDEGTSISVHLIEC [YCS4] | 2.78 ± 0.094 | 2.73 ± 0.071 | 2.69 ± 0.11 | 3.2 ± 0.059
KGVTEKDAVDYSKIPNI [RRP6] | 3.24 ± 0.12 | 3.18 ± 0.092 | 3.25 ± 0.08 | 3.3 ± 0.069
KHYKNIPRNSPLSDLKK [RPC82] | 2.88 ± 0.15 | 2.97 ± 0.17 | 2.59 ± 0.19 | 2.97 ± 0.083
KIADNISKDENEDQFLE [YDL116W/NUP84] | 2.92 ± 0.14 | 2.98 ± 0.13 | 2.86 ± 0.13 | 3.33 ± 0.1
KIATRGVMLWKEFDETI [FAS1] | 3.02 ± 0.22 | 2.94 ± 0.22 |  | 2.94 ± 0.15
KIDGNPDELIKAGVEAI [PRE5] | 3.32 ± 0.17 | 3.44 ± 0.2 | 3.29 ± 0.083 | 3.36 ± 0.092
KIDLASGKITDFIKFDA [RPS4A] | 3.26 ± 0.072 | 3.21 ± 0.078 | 3.13 ± 0.07 | 3.35 ± 0.082
KIESSVESQFSAGRLYA [RPS8A] | 2.81 ± 0.11 | 2.85 ± 0.087 | 1.96 ± 0.15 | 2.77 ± 0.13
KIFIAVVWYQRLTMGNV [RRI2] | 1.3 ± 0.044 | 1.25 ± 0.038 | 1.28 ± 0.082 | 1.27 ± 0.036
KIFQTTPEKDLFIGLFT [YCS4] | 2.1 ± 0.088 | 1.84 ± 0.055 | 2.41 ± 0.11 | 2.58 ± 0.066
KIFVETKFSKLIGRPPL [FAS1] | 1.97 ± 0.29 | 2.54 ± 0.093 | 2.35 ± 0.11 | 1.79 ± 0.059
KIITSRPLQKIMLLQLE [SIN4] | 2.12 ± 0.06 | 2.08 ± 0.052 | 2 ± 0.071 | 1.63 ± 0.044
KIKPYVRSFSKALDELK [LRP1] | 2.52 ± 0.04 | 2.95 ± 0.037 | 2.35 ± 0.047 | 2.68 ± 0.027
KIMPKDILQITKKPLMV [SIR4] | 2.62 ± 0.088 | 2.79 ± 0.17 | 2.32 ± 0.1 | 2.56 ± 0.09
KIRCFRYISTLTLYLFQ [IRR1] | 1.69 ± 0.073 | 1.47 ± 0.077 | 1.64 ± 0.15 | 1.51 ± 0.14
KITSPIRSVALNDSNVK [RRP42] | 2.6 ± 0.12 | 2.42 ± 0.11 | 2.59 ± 0.1 | 2.94 ± 0.078
KIYINLALGSHNKLIQF [SSN2] | 2.57 ± 0.17 | 1.83 ± 0.078 | 2.13 ± 0.11 | 2.22 ± 0.071
KKAFTSYDRTLLIADSR [RPS16A] | 2.25 ± 0.044 | 2.48 ± 0.073 | 1.9 ± 0.079 | 2.24 ± 0.059
KKASEISVSSRSDREYP [SRP14] | 3.19 ± 0.096 | 3.1 ± 0.12 | 2.99 ± 0.1 | 2.87 ± 0.082
KKCHRLLWTPKKLEITS [RPR2] | 2.35 ± 0.045 | 2.48 ± 0.044 | 2.59 ± 0.038 | 2.34 ± 0.031
KKDVEKELPDKVEKVVK [SNF2] | 3.52 ± 0.23 | 3.47 ± 0.14 | 3.39 ± 0.099 | 3.34 ± 0.089
KKEEEEQLSEEDAKLKT [RPN1] | 3.19 ± 0.16 | 3.24 ± 0.07 | 3.34 ± 0.11 | 3.06 ± 0.14
KKEEKLNIGKNFAHSDS [SIR4] | 3.18 ± 0.059 | 2.97 ± 0.057 | 3.12 ± 0.033 | 3.11 ± 0.037
KKEENETISNVAKTAPN [SNF2] | 2.86 ± 0.072 | 3.03 ± 0.065 | 2.52 ± 0.1 | 2.94 ± 0.047
KKEKLDSGEVDADGDID [DPB4] | 3.05 ± 0.15 | 3.4 ± 0.17 | 3.29 ± 0.12 | 3.36 ± 0.11
KKEKLKQENSTLLKKAN [RPC82] | 2.3 ± 0.074 | 2.81 ± 0.093 | 2.71 ± 0.12 | 2.85 ± 0.075

Sequence | protein stability index (doa10∆) | protein stability index (pdr5∆) | protein stability index (san1∆) | protein stability index (ubr1∆)
KKFGGKGARSRFQKSYR [RPS16A] | 3.29 ± 0.12 | 3.27 ± 0.097 | 3.27 ± 0.072 | 3.32 ± 0.079
KKIFGTGKRLAKKVARR [RPS24A] | 3.52 ± 0.064 | 3.34 ± 0.057 | 3.31 ± 0.039 | 3.42 ± 0.039
KKIIKCDEHMGLSLAGL [PRE5] | 2.94 ± 0.079 | 3.2 ± 0.076 | 3.15 ± 0.075 | 2.94 ± 0.076
KKIMDETPSRLLLSPDQ [ITC1] | 3.04 ± 0.056 | 3.37 ± 0.065 | 3.21 ± 0.078 | 3.33 ± 0.041
KKKAFTKYSAKYAQDGA [RPL3] | 3.03 ± 0.12 | 3.38 ± 0.09 | 3.1 ± 0.054 | 3.04 ± 0.032
KKLSINSAARNIQHLLY [PRE7] | 2.68 ± 0.051 | 2.88 ± 0.062 | 2.81 ± 0.044 | 2.8 ± 0.056
KKMGVPYAIIKGKARLG [RPL8B] | 2.15 ± 0.15 | 2.12 ± 0.15 | 2.11 ± 0.17 | 3.41 ± 0.28
KKMVYVLDSMTKEELES [SRP54] | 3.02 ± 0.086 | 2.85 ± 0.085 | 2.92 ± 0.091 | 3.04 ± 0.069
KKNIDYQNRSTRSQFCL [RRI1] | 3.01 ± 0.039 | 2.94 ± 0.04 | 2.88 ± 0.034 | 3.079 ± 0.026
KKNRDKKIFGTGKRLAK [RPS24A] | 3.4 ± 0.05 | 3.23 ± 0.039 | 3.291 ± 0.028 | 3.26 ± 0.033
KKPLSMALNKVLITDHI [CDC53] | 1.93 ± 0.04 | 2.24 ± 0.038 | 2.18 ± 0.05 | 2.12 ± 0.028
KKRNPSKQNGSKFHFSW [PRP28] | 2.78 ± 0.054 | 2.62 ± 0.05 | 2.52 ± 0.052 | 2.49 ± 0.038
KKRRGSRIYKTIKVAGT [SNU114] | 1.6 ± 0.042 | 1.78 ± 0.045 | 1.61 ± 0.069 | 1.8 ± 0.043
KKSGSLTFNSKNIQSKD [FAS2] | 3.2 ± 0.12 | 3.29 ± 0.13 | 3.26 ± 0.13 | 3.27 ± 0.075
KKVNGTSYKKWSFDLPE [PRP8] | 2.2 ± 0.07 | 2.36 ± 0.084 | 2.25 ± 0.1 | 3.35 ± 0.12
KKVVLRLECVKCKTRAQ [RPL42A] | 2.3 ± 0.12 | 2.03 ± 0.095 | 2.4 ± 0.16 | 2.09 ± 0.047
KLDENNAQLSCITKQDG [PUP2] | 2.79 ± 0.12 | 3.13 ± 0.087 | 3.11 ± 0.098 | 3.06 ± 0.088
KLDLFKYFTELSHYIRQ [MED1] | 1.52 ± 0.084 | 1.44 ± 0.14 | 1.24 ± 0.17 | 1.33 ± 0.079
KLDTEVKNTNANPVVAT [SWP82] | 1.94 ± 0.069 | 2.38 ± 0.082 | 2.54 ± 0.08 | 1.86 ± 0.05
KLHMGTEDVRLAPELNQ [RPL31B] | 2.81 ± 0.061 | 3 ± 0.067 | 2.86 ± 0.049 | 3.05 ± 0.04
KLINIKKFDISNDNLDL [MED1] | 2.83 ± 0.2 | 3.01 ± 0.15 | 2.48 ± 0.15 | 2.83 ± 0.096
KLKNENTDLKDIIQGNP [PCI8] | 2.82 ± 0.051 | 3.21 ± 0.084 | 2.75 ± 0.14 | 3.25 ± 0.089
KLLDNIQEYQLCDNFNH [COR1] | 2.35 ± 0.074 | 2.31 ± 0.091 | 2.44 ± 0.086 | 2.2 ± 0.064
KLLKEKVKLFHGILDDL [MED2] | 3.1 ± 0.12 | 2.93 ± 0.13 | 3.09 ± 0.06 | 2.97 ± 0.14
KLLKGATLYIPKALRFD [FAS2] |  | 2.79 ± 0.22 | 2.88 ± 0.13 | 
KLLLLRINSTDEDLHEF [SRB8] | 2.61 ± 0.2 | 3.06 ± 0.16 | 2.94 ± 0.18 | 3.24 ± 0.27
